Measurements reported in paper PMC9368917.

Target: T1, 3xFLAG-STM0347 (Salmonella enterica serovar Typhimurium (strain not stated in the given text)) (UniProt H9L417)
T1 sequence: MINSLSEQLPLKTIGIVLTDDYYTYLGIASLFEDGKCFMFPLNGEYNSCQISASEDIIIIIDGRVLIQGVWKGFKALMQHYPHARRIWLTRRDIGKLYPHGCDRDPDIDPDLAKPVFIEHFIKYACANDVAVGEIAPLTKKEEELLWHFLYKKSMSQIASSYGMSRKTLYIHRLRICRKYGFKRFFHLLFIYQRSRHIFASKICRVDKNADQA
Test: EMSA
Settings: 10 mM Tris-HCl pH 8.3, 50 mM KCl, 1 mM MgCl2, 0.5 mM DTT, 0.5 mM EDTA, 50 ug/mL BSA, 0.2% glycerol; room temperature 20 min; 6% native PAGE in 1x TAE in ice …

For “CATCGCTCAAAACACTACCAGACACAGTATTCACCTGGAAAGGCTTTTTAATCAAAATGTTAGATGTAAGCAATTACGGACAGAAAAAATAGTAAAGTTTATGCCTCAAGTGTCGATAACCTGGATGACACAGGTAAGCCTGGCATAACATTGGTTATCAAAAACCTTCCAAAAGGAAAATTTTATGGCACAAGTAATCAACACTAACAGTCTGTCGCTGCTGACCCAGAATAACCTGAACAAATCCCAGTCCGCACTGGGCACCGCTATCGAGCGTCTGTCTTCTGGTCTGCGTATCAA (double strand) [fljB promoter fragment]”, the binding was “no binding”.
